Each substance was assayed against HLA-A*02:01 (Homo sapiens, UniProt P04439, D140Y/D185E/D98H/E176V/E277Q/G131W/G231S/I119V/I121R/I166T/I218V/L300P/L318F/N151K/N90K/P208A/P217A/Q86G/Q94H/R138H/R169H/T345S) (assay: MHC binding assay (UV-ligand exchange, anti-β2m ELISA, peptide exchange yield)). Details: binding to HLA-A*02:01.
Description: Candidate peptides for T cell based therapies according to the present invention were further tested for their MHC binding capacity (affinity). The individual peptide-MHC complexes were produced by UV-ligand exchange, where a UV-sensitive peptide is cleaved upon UV-irradiation, and exchanged with the peptide of interest as analyzed. Only peptide candidates that can effectively bind and stabilize the peptide-receptive MHC molecules prevent dissociation of the MHC complexes. To determine the yield of the exchange reaction, an ELISA was performed based on the detection of the light chain (β2m) of stabilized MHC complexes. The assay was performed as generally described in Rodenko et al. (Rodenko et al., 2006).
96 well MAXISorp plates (NUNC) were coated over night with 2 ug/ml streptavidin in PBS at room temperature, washed 4× and blocked for 1h at 37° C. in 2% BSA containing blocking buffer. […] Peptide-MHC monomers of the UV-exchange reaction were diluted 100 fold in blocking buffer. Samples were incubated for 1 h at 37° C., washed four times, incubated with 2 ug/ml HRP conjugated anti-β2m for 1h at 37° C., washed again and detected with TMB solution that is stopped with […]. Absorption was measured at 450 nm. Candidate peptides that show a high exchange yield (preferably higher than 50%, most preferred higher than 75%) are generally preferred for a generation and production of antibodies or fragments thereof, and/or T cell receptors or fragments thereof, as they show sufficient avidity to the MHC molecules and prevent dissociation of the MHC complexes.

| Substance | Peptide exchange (MHC class I binding score, peptide exchange yield) |
| --- | --- |
| 239 (AAFAGKLLSV; listed as Homo sapiens) [compound 239] | “+++” (>50 = +++) |
| 263 (LLVSNLDFGV; listed as Homo sapiens) [compound 263] | “+++” (>50 = +++) |
| 496 (FLVEKQPPQV; listed as Homo sapiens) [compound 496] | “+++” (>50 = +++) |
| 142 (FLFATPVFI; listed as Homo sapiens) [compound 142] | “+++” (>50 = +++) |
| 622 (RLLGEEVVRVLQA; listed as Homo sapiens) [compound 622] | “+++” (>50 = +++) |
| 503 (SLNHFTHSV; listed as Homo sapiens) [compound 503] | “+++” (>50 = +++) |
| 478 (YLLHEKLNL; listed as Homo sapiens) [compound 478] | “+++” (>50 = +++) |
| 340 (ALLSMTFPL; listed as Homo sapiens) [compound 340] | “++++” (>75% = ++++) |
| 174 (ALAQYLITA; listed as Homo sapiens) [compound 174] | “+++” (>50 = +++) |
| 91 (IMQDFPAEIFL; listed as Homo sapiens) [compound 91] | “++++” (>75% = ++++) |
| 93 (LLQAIKLYL; listed as Homo sapiens) [compound 93] | “++” (>20% = ++) |
| 303 (AILPQLFMV; listed as Homo sapiens) [compound 303] | “++++” (>75% = ++++) |
| 230 (ILVDWLVEV; listed as Homo sapiens) [compound 230] | “+” (>10% = +) |
| 245 (SMIDDLLGV; listed as Homo sapiens) [compound 245] | “+++” (>50 = +++) |
| 567 (SLLPLDDIVRV; listed as Homo sapiens) [compound 567] | “+++” (>50 = +++) |
| 27 (ILADIVISA; listed as Homo sapiens) [compound 27] | “+++” (>50 = +++) |
| 224 (TLIDAQWVL; listed as Homo sapiens) [compound 224] | “+++” (>50 = +++) |
| 480 (ALLEDSCHYL; listed as Homo sapiens) [compound 480] | “+++” (>50 = +++) |
| 436 (HLAEVSAEV; listed as Homo sapiens) [compound 436] | “+++” (>50 = +++) |
| 119 (FLYIGDIVSL; listed as Homo sapiens) [compound 119] | “++++” (>75% = ++++) |
| 542 (RVWDISTVSSV; listed as Homo sapiens) [compound 542] | “+++” (>50 = +++) |
| 225 (SLLKVLPAL; listed as Homo sapiens) [compound 225] | “+++” (>50 = +++) |
| 267 (ALQDFLLSV; listed as Homo sapiens) [compound 267] | “+++” (>50 = +++) |
| 526 (RLAEVGQYEQV; listed as Homo sapiens) [compound 526] | “++” (>20% = ++) |
| 528 (SVAEGRALMSV; listed as Homo sapiens) [compound 528] | “+++” (>50 = +++) |

| Substance | Peptide exchange (MHC class I binding score, peptide exchange yield) |
| --- | --- |
| 553 (SLLNQDLHWSL; listed as Homo sapiens) [compound 553] | “+++” (>50 = +++) |
| 513 (SLWPSPEQL; listed as Homo sapiens) [compound 513] | “++” (>20% = ++) |
| 341 (SQIALNEKLVNL; listed as Homo sapiens) [compound 341] | “+++” (>50 = +++) |
| 475 (LLLNEEALAQI; listed as Homo sapiens) [compound 475] | “+++” (>50 = +++) |
| 306 (ALVNVQIPL; listed as Homo sapiens) [compound 306] | “+++” (>50 = +++) |
| 604 (SILDRDDIFV; listed as Homo sapiens) [compound 604] | “+++” (>50 = +++) |
| 212 (ALWDQDNLSV; listed as Homo sapiens) [compound 212] | “++” (>20% = ++) |
| 177 (YLLPEEYTSTL; listed as Homo sapiens) [compound 177] | “++++” (>75% = ++++) |
| 66 (FLDENIGGVAV; listed as Homo sapiens) [compound 66] | “+++” (>50 = +++) |
| 471 (YLYNNMIAKI; listed as Homo sapiens) [compound 471] | “+++” (>50 = +++) |
| 399 (YLFEPLYHV; listed as Homo sapiens) [compound 399] | “+++” (>50 = +++) |
| 311 (RLYTGMHTV; listed as Homo sapiens) [compound 311] | “+++” (>50 = +++) |
| 472 (KLLEVSDDPQV; listed as Homo sapiens) [compound 472] | “+++” (>50 = +++) |
| 274 (SLLFSLFEA; listed as Homo sapiens) [compound 274] | “++” (>20% = ++) |
| 635 (SLDSTLHAV; listed as Homo sapiens) [compound 635] | “+++” (>50 = +++) |
| 94 (YLIDIKTIAI; listed as Homo sapiens) [compound 94] | “++” (>20% = ++) |
| 380 (TLIEDEIATI; listed as Homo sapiens) [compound 380] | “++” (>20% = ++) |
| 44 (ILDPISSGFLL; listed as Homo sapiens) [compound 44] | “++” (>20% = ++) |
| 611 (YLLDDGTLVV; listed as Homo sapiens) [compound 611] | “++++” (>75% = ++++) |
| 228 (AMQEYIAVV; listed as Homo sapiens) [compound 228] | “++” (>20% = ++) |
| 448 (NLLETKLQL; listed as Homo sapiens) [compound 448] | “+++” (>50 = +++) |
| 238 (YLISFQTHI; listed as Homo sapiens) [compound 238] | “+++” (>50 = +++) |
| 600 (ALAAPDIVPAL; listed as Homo sapiens) [compound 600] | “+++” (>50 = +++) |
| 605 (KLYEAVPQL; listed as Homo sapiens) [compound 605] | “+++” (>50 = +++) |
| 440 (ALADGVTMQV; listed as Homo sapiens) [compound 440] | “++” (>20% = ++) |

— patent publication US10239925B2, “Peptides and combination of peptides for use in immunotherapy against ovarian cancer and other cancers” (IMMATICS BIOTECHNOLOGIES GMBH, priority 2015, dated 2019)
